Source: the DeepSol protein solubility set

assay: soluble on expression in E. coli; label from the status in PepcDB or PDB records

Q: Which “soluble on expression in E. coli” value does the source give for “MIGGLFVYNHKGEVLISRIYRDDVTRNAVDAFRVNVIHARQQVRSPVTNMARTSFFHVKRGNVWICAVTRQNVNAAMVFEFLKRFADTMQSYFGKLNEENVKNNFVLIYELLDEILDFGYPQNTDPGVLKTFITQQGVRTATKEEQSQITSQVTGQIGWRREGIKYRRNELFLDVIEYVNLLMNQQGQVLSAHVAGKVAMKSYLSGMPECKFGINDKITIEGKSKPGSDDPNKASRAAVAIDDCQFHQCVKLTKFETEHAISFIPPDGEYELMRYRTTKDIQLPFRVIPLVREVSRNKMEVKVVVKSNFKPSLLAQKLEVRIPTPPNTSGVQLICMKGKAKYKAGENAIVWKIKRMAGMKESQISAEIDLLSTGNVEKKKWNRPPVSMNFEVPFAPSGLKVRYLKVFEPKLNYSDHDVIKWVRYIGRSGLYETRC” here?
A: not soluble

Q: Which “soluble on expression in E. coli” value does the source give for “MGSDKIHHHHHHEHNRSAVTTEGGYYDTEKGFESLINSCYTPLRFWGGKSAAMAFSETGTDILAPGGGCDYPAIVSYQNDFDGTNPISKEYYDRFYKAINFCNTAIYHVKNVPFSDKTLTSKREAEVRFLRAYYYWILVETFGDTYYTDQPSESIVMAPRKTSVAEIYTHIFEDLDFCMDSRLSVAQADGGRVTMWAAKALKARLLLTRASELNDKALYEQAYTLAKEVIDNGPFELSKDFASVFDMENSDGNGNKEVIWYIDYSSTNQLYNQEMDNDIIRSGGNHTHLIFCMKYDDQPGMVRSIEYGRPFNHYMPTRYLLDCYDENIDQRFEVTFRSLWKANGGKTGDNYPYMVQGDTAIWITKDVVPQVKRQWAKGRYQILDRTDIYHEDGSVKSQKQCMPISKFEDPTRATVNEDRGTRDAFIIRVAEMYLIVAEAGAKAGKADALAYMNILRAQRAKAGKEEAMKVAQSDIEDIDFILDERARELVGEQLRWFDLKRMGSEIFIRRIKSGNPDAGKNVKAYHMLRPFPQTLLDAITNKDEFLQNEGYK” here?
A: not soluble

Q: For “ALEGTEFARAQLSEAMTLASGLKTKVSDIFSQDGSCPANTAATAGIEKDTDINGKYVAKVTTGGTAAASGGCTIVATMKASDVATPLRGKTLTLTLGNADKGSYTWACTSNADNKYLPKTCQTATTTTP”, which “soluble on expression in E. coli” value is on record?
A: soluble

Q: Which “soluble on expression in E. coli” value does the source give for “MGHHHHHHSHMEAEESEKAATEQEPLEGTEQTLDAEEEQEESEEAACGSKKRVVPGIVYLGHIPPRFRPLHVRNLLSAYGEVGRVFFQAEDRFVRRKKKAAAAAGGKKRSYTKDYTEGWVEFRDKRIAKRVAASLHNTPMGARRRSPFRYDLWNLKYLHRFTWSHLSEHLAFERQVRRQRLRAEVAQAKRETDFYLQSVERGQRFLAADGDPARPDGSWTFAQRPTEQELRARKAARPGGRERARLATAQDKARSNKGLLARIFGAPPPSESMEGPSLVRDS” here?
A: not soluble

Q: With “MSLKRLNLYIFGENNILDILIKNGSVFSGNNNEPESNNIGIKKSKIDFIGKESPESKKVIDAKDYIVTPGFIDIHTHSDISFLVDPEADSKLTQGVTFEFLGNCGMSFCAPLNSASKQTLSDRLSKYNSDVKIDWNDFTDWLNKIEKNIPSINVAAQLGHGVLRSYVMGMKAVSATPEDIEAMKNIVRSSIDQGVLGFSTGLWYAPGSYSHTEEIVEITKVVAEHDLLYSSHIRSESDDASGLFPAHAEAIEIGRRTGAKIQISHVKSVGPQFWGRGKELLEGMYKAREEGIDVAGDQYPYEWSSTPTSGCMFPRWSLEGGREKTLERLKDKNIREAIKSETINYINRFHGSAGCVLAEFSNDKKLEGLNLSEISEEFSCSPEEAAMRLYEISEGSFVLHSMEEQDVDTIGMSDIIAVASDGNSLRNTGPLSNGKPHPRSYGTNTRFIEDMVVNKKKVSISNAIYRMTSLPASRIGLKNRGEIKKGYFADINIFKPEELREKATYVDPHQYSTGMKWVLVNGKIALKDGKKIEGRFGKVVRSKEGEGHHHHHH” as the sequence, how does the “soluble on expression in E. coli” value read?
A: soluble

Q: For “MGSDKIHHHHHHMDLTQLRMFCLVAETGSVARAAEQLHRVPSNLTTRLRQLELELGTDLFIREKQRLRLSPIGHNFLCYAQRILALSEEAISMTRTGEPAGNFALGSMESTAATRLPTLLAAYHQRYPNVSLSLNTGTSGEIIERVRAGTLAAALVDGPVVYDELNGCSCFAEQLVLISDPSHSPITHARDASNDTLFAFRPSCSYRKRLENWFRQDGVVPGTIMEIHSYHAMLACVASGSGLAMLPYAVLESLPAGARVQVHELPPDIAAASTWLVWRRDAFGPNVEALKKLIIEQSAQSE”, which “soluble on expression in E. coli” value is on record?
A: not soluble

Q: With “EETIPLQTLRCYNDYTSHITCRWADTQDAQRLVNVTLIRRVNEDLLEPVSCDLSDDMPWSACPHPRCVPRRCVIPCQSFVVTDVDYFSFQPDRPLGTRLTVTLTQHVQPPEPRDLQISTDQDHFLLTWSVALGSPQSHWLSPGDLEFEVVYKRLQDSWEDAAILLSNTSQATLGPEHLMPSSTYVARVRTRLAPGSRLSGRPSKWSPEVCWDSQPGDEAQPQNLECFFDGAAVLSCSWEVRKEVASSVSFGLFYKPSPDAGEEECSPVLREGLGSLHTRHHCQIPVPDPATHGQYIVSVQPRRAEKHIKSSVNIQMAPPSLQVTKDGDSYSLRWETMKMRYEHIDHTFEIQYRKDTATWKDSKTETLQNAHSMALPALEPSTRYWARVRVRTSRTGYNGIWSEWSEARSWDTES” as the sequence, how does the “soluble on expression in E. coli” value read?
A: soluble

Q: Which “soluble on expression in E. coli” value does the source give for “MAHHHHHHMNGNHGEPGTERENRSSADEAPKGDAFFDPSAEQYLVISPRQKLNPVLKKINRVRYKFSNIIPDFLIGKNNACLFISMKYHRLRSNYLKARIETLSNKYSNRILLCLVDIENIENSLGEINQLAFCFNMTLILCWSTEECARVIEDFKIYEKKISYIRNNKLTSTHAEKIHELLKKIRCINSSDCATITNKFKSFKNIVTAKKDDLINCSGLGNKKIQALISAFNDPFF” here?
A: soluble

Q: For “MGSDKIHHHHHHMNDWDRLYDRAETLLSRLEGLLRADAPEPEWNAAAFRWRKTGRSGFIEPVRYPDSITFEALQSIGRQKSLVDQNTRQFVRHHPANNVLLTGARGTGKSSLVKAMLNKYAADGLRLIEVEKHHLVDLPEIVEKVYRRPERFILYCDDLSFESGEPGYKALKVVLDGSIATASENVLVYATSNRRHLMPEYRVDNQDTRHTGGEIHPSEAVEEKTSLSERFGLWISFYPFDQEQYLDIVARWLAYFGIDKMDDSIREEALRWALGRGSRNGRVAWQFARDRAGREKAGQKPADKTEFRAEQ”, which “soluble on expression in E. coli” value is on record?
A: not soluble

Q: For “MAHHHHHHMFRRLSVCVPFATTARFYTPSEELKKLYASDFERAQFPANIVPSDSVTFAKFLYKAVEPKGSFDTILKDFQTIAAAIPKLPVFWQRTVVVSEVSEFKSLSAPTTFTLEWMQSNGMLDLLPDVAEVYETYVNAKMKRVTAKIYVAAGKEQDRALVDKAKKVAEQVVKDNQQFAGYTLVPKVLVDRSIVEGFAVDVQGTYVNEAVGRKKETQASGEVDYTTIPPPRLSKTTWEDNIETEVLRKYLDSLSLYDAEELKSGV”, which “soluble on expression in E. coli” value is on record?
A: soluble

Q: With “MSLASLPGGASTLQETYQDWTVSCQSQKDTTACVMRQEQSSAQTGQRVLTAELRNVAGGKVDGVLLMPFGLDLAKGASLKIDDTAGPNLTFSTCLPQGCLAPVSFDAKQVAALKSGTNINVTTTALSPSQPVAFKISLKGFGAALDRIQALTKEGHHHHHH” as the sequence, how does the “soluble on expression in E. coli” value read?
A: soluble

Q: For “MSLKITAVEPFILHLPLTSESISDSTHSITHWGVVGAKITTSDGIEGYGFTGTHAHLPSDRLITSCISDCYAPLLLGEDASDHSRLWTKLARYPSLQWVGRAGITHLALAAVDVALWDIKAKKAGVPLWHYLGGARTAGVEAYNTDIGWLSFTLEDLLAGSARAVEEDGFTRLKIKVGHDDPNIDIARLTAVRERVDSAVRIAIDGNGKWDLPTCQRFCAAAKDLDIYWFEEPLWYDDVTSHARLARNTSIPIALGEQLYTVDAFRSFIDAGAVAYVQPDVTRLGGITEYIQVADLALAHRLPVVPHAGEMSQVHVHLSYWHPASTILEYIPWIKDHFEEPIHVRDGVYKRPEQPGASTTPLAESFTRYGKAVKEGHHHHHH”, which “soluble on expression in E. coli” value is on record?
A: soluble

Q: For “MSLSGIINNREYRQKVLKEIILELHNGKSVDEVRKRFQELIKGVSTKEISEMEAQLIKEGMKVEEIQRLCDVHAAVFKGSIDQIHHPEKEEGHPVSVLKKENEAVKNYIQSHLTPNLEEIKKSDSHSTRLKLMENISMLFDLDKHYSRKENLIFPYLEKYGITAPPKVMWGVDDEIREALKECKEVINSANKTPNEITEKVESTLKRIEEMIFKEESILLPMCIDTFSEDEWLDIESESDEIGYCLISPSEKWKPKRENVEEKEKSKLANENSEGYIKFDTGILRVNELSAILDTLPLDITFVDKDGTVKYFSGGSERIFARTRAVIGRKVQNCHPPASVHIVEKVVEDLKSGKKDHEDFWLHMGELYVFIRYYAVKDNKGEFIGVLEVTQNIKEIQEITGEKRLIEEGHHHHHH”, which “soluble on expression in E. coli” value is on record?
A: soluble

Q: With “MDQERARKRGITMGKQEFDGMSRISGLLTPELRATIEAVLAKLAAPGACNPDDQTPLVDDTPDADAVRRDTRSQAQRHHDGLLAGLRGLLASGELGQHRGLPVTVVVSTTLKELEAATGKGVTGGGSRVPMSDLIRMASNAHHYLALFDGAKPLALYHTKRLASPAQRIMLYAKDRGCSLEHHHHHH” as the sequence, how does the “soluble on expression in E. coli” value read?
A: soluble

Q: For “MGSDKIHHHHHHMKKQPSATVNQEKESELIEGLMSNDDLAYETLVRQYSAKMYAVARRFFCTNDDAQECLQKAFIQVFKNITSFKQNSNLSTWLHRITVNEALMMLRQRKRQNTTSLEEFAQHYNEYGERTVFADNLGNNLNNNLGTILGGNVETLFEKTETKLSLNDIIFQLPEKYCNVLLLRDIQEISTKETAEILAISESLVKTQLHRARLLLKAILEQDDKDNLESNWKVNSHVND”, which “soluble on expression in E. coli” value is on record?
A: not soluble

Q: For “MSLKYKLLVLDLDGTLTNAKKEITLHNREALIRVQQQGVKLILASGRPTFGIVPLADELRMKEFGGFILSYNGGEIIDWSTGEIVYANVLPDEVIPRLYECATRNQLPILTYDRQYIITEYPDDVYVRKEAFLNKMQIYPSTDFLKDIRLPLPKCLIVGEPHRLIPIEAELSVELQGQLSVYRSEPFFLELVPQGIDKAQSLSVLLNKLNMNREEMVAVGDGYNDLSMIQFAGLGVAMGNAQEPVKKAADYITLSNEEDGVAAVVNKFFTKAPEKGEGHHHHHH”, which “soluble on expression in E. coli” value is on record?
A: soluble

Q: Which “soluble on expression in E. coli” value does the source give for “MGSDKIHHHHHHMPGLPPPAVEPAVTSIKQEDLIQSVADALQYISYYHPVDYIKNLSAAYEREESPAAKDAIAQILINSRMCAEGHRPICQDTGIVTVFLEIGMNVRWDDATMGVEDMVNEGVRRAYNHPDNKLRASVLADPAGKRANTKDNTPAVVSTKIVPGDHLEVIVAAKGGGSEAKSKFAMLNPSDSIVDWVLKTVPTMGAGWCPPGMLGIGIGGTAEKAMLLAKEALMEPIDIVDLQARGASNRAEELRLELYEKVNALGIGAQGLGGLTTVLDIKVKDYPTHAANLPVALIPNCAATRHAHFTLDGSGPVMLDPPSLEDWPKLTYNPTNARRVNLDTITREEVASFKPGEVVLLNGKLLTGRDAAHKRMIDMLNRGETLPVDFTNRFIYYVGPVDPVRDEVVGPAGPTTATRMDKFTRQMLEQTGLLGMVGKSERGDAAIDAIRDNKAVYLMAVGGSAYLVSKAIKAARVLAFEDLGMEAIYEFEVKDMPVTVAVDSTGESVHKTGPRLWQSRIGKIPVVVE” here?
A: not soluble

Q: For “MHRVEETRRIAPEEGNPVLISQIKDASGNITVAVREEGGQARAVKGAASVYALAMEAANGGKSLADVVSAHGLGDAVDLDKAYAEGRFLPPITHPDPAHLHLTGTGLTHLGSAATRDSMHKKTTEAAEESLTDSMKMFRMGLENGKPKAGEKGVQPEWFYKGNGHVAAAPGAALTSPSFALDGGEEPEMAGIYVISDKGEAVRIGFAVSNEFSDHVTERVNYLYLAHSKLRPASFGPEIRVGAAPSDIRGTSRIRRGDKVIFEKPFVSGEDNMSHTFANLEYHHFKYGLFRAPGDVHVHMFGTATLSFAEGIKPEAGDVFEIEAAGFGLPLKNPLAVDSEEEIVVRQI”, which “soluble on expression in E. coli” value is on record?
A: not soluble
